Like-named read-outs stand apart in the source and are kept apart here.

In test [1] the target is T1, SARS-CoV-2 S1 protein (SARS-CoV-2, UniProt P0DTC2 16-685).
Test [2] concerns the target T1, SARS-CoV-2 S1 protein. This is another data set of the same source.
The target of test [3] is T1, SARS-CoV-2 S1 protein. The experiment in a line: phage ELISA screen on S1, mean. In general terms: ELISA stands for enzyme-linked immunosorbent assay.
Test [4] has as its target T1, SARS-CoV-2 S1 protein. The experiment in a line: Carterra SPR, Fc capture, S1.
Test [5] addresses T1, SARS-CoV-2 S1 protein. Description: ELISA binding titration on coated antigen.
For test [6], the target named is T1, SARS-CoV-2 S1 protein. The experiment in a line: Carterra SPR, DB format, S1.
Test [7] addresses T1, SARS-CoV-2 S1 protein. Description: inhibitor ELISA, competitor ACE2.
For test [8], the target named is T2, SARS-CoV-2 antigen of the epitope binning (SARS-CoV-2, UniProt P0DTC2 16-685).
T2 construct: also called S1
The experiment in a line: epitope binning; competitor 1-35.

Test [9] has as its target T2, SARS-CoV-2 antigen of the epitope …. The experiment in a line: epitope binning; competitor 2-8.
Test [10] has the same target. Description: epitope binning; competitor 1-32.
For test [11] the target is unchanged. The experiment in a line: epitope binning; competitor Acro mAb.
Test [12] shares this target. Description: epitope binning; competitor CR3022.
The target in test [13] is T3, SARS-CoV-2 S protein RBD, SPD-C5259 (SARS-CoV-2, UniProt P0DTC2 319-537).
T3 construct: domain: RBD
The experiment in a line: FACS, inhibition of S protein RBD binding to Vero cells.

The target of test [14] is T2, SARS-CoV-2 antigen of the epitope …. The experiment in a line: epitope binning; competitor 2-11.
Test [15] shares this target. Description: epitope binning; competitor 2-5.
For test [16] the target is unchanged. The experiment in a line: epitope binning; competitor 1-16.
In test [17] the target is T4, SARS-CoV-2 Spike Glycoprotein S1 (SARS-CoV-2, UniProt P0DTC2 16-685).
T4 construct: also called S1 Monomer
The experiment in a line: ELISA, plate coated with S1.

The next test has as its target S protein trimer (SARS-CoV-2, UniProt P0DTC2 14-1208). Description: ELISA, plate coated with S protein trimer.
Test [18] concerns the target T2, SARS-CoV-2 antigen of the epitope …. Description: epitope binning; competitor 2-2.
Test [19] shares this target. The experiment in a line: epitope binning; competitor 2-6.
The target in test [20] is T1, SARS-CoV-2 S1 protein. Description: phage ELISA screen on S1, mean. This is another data set of the same source.
Test [21] concerns the target T1, SARS-CoV-2 S1 protein. Description: inhibitor ELISA, competitor ACE2. The source holds these as a separate data set.
Test [22] concerns the target T1, SARS-CoV-2 S1 protein. Description: Carterra SPR, direct capture (DC), S1.

B1: 2-9 (antibody, V domains shown)
VH: EVQLLESGGGLVQPGGSLRLSCAASGFTFPRYAMSWVRQAPGKGLEWVSTISGSGSTTYYADSVKGRFTISRDNSKNTLYLQMNSLRAEDTAVYYCARLIDAFDIWGQGTLVTVSS
VL: DIQMTQSPSSLSASVGDRVTITCRASQRIGTYLNWYQQKPGKAPKLLIYAASNLEGGVPSRFSGSGSGTDFTLTISSLQPEDFATYYCQQNYSTTWTFGQGTKVEIK
notes: also called variant 2-9
Regarding B1, inhibition with SARS-CoV-2 S1 protein [1] was half-maximal at 23.2 nM (IC50). This molecule yielded an EC50 with SARS-CoV-2 S1 protein [2] of 12.6 nM.

B2: 2-2 (antibody, V domains shown)
VH: EVQLLESGGGLVQPGGSLRLSCAASGFTFSRHAMNWVRQAPGKGLEWVSGISGSGDETYYADSVKGRFTISRDNSKNTLYLQMNSLRAEDTAVYYCARDLPASYYDSSGYYWHNGMDVWGQGTLVTVSS
VL: DIQMTQSPSSLSASVGDRVTITCRASQTINTYLNWYQQKPGKAPKLLIYSASTLQSGVPSRFSGSGSGTDFTLTISSLQPEDFATYYCQQSYSTFTFGQGTKVEIK
notes: also called variant 2-2
B2: in the test with SARS-CoV-2 S1 protein [3], the “ELISA(Avg)” value was found to be 23.4 fold over background. For the same molecule, the equilibrium dissociation constant (Kd) with SARS-CoV-2 S1 protein [4] was found to be 58.3 nM; with SARS-CoV-2 S1 protein [6] it was 11.7 nM. Moreover, the EC50 with SARS-CoV-2 S1 protein [5] was found to be 0.612 nM. Moreover, the IC50 in the test with SARS-CoV-2 S1 protein [7] was found to be 3.6 nM.

B3: 2-2 (antibody, V domains shown)
VH: EVQLLESGGGLVQPGGSLRLSCAASGFTFSRHAMNWVRQAPGKGLEWVSGISGSGDETYYADSVKGRFTISRDNSKNTLYLQMNSLRAEDTAVYYCARDLPASYYDSSGYYWHNGMDVWGQGTLVTVSS
VL: DIQMTQSPSSLSASVGDRVTITCRASQTINTYLNWYQQKPGKAPKLLIYSASTLQSGVPSRFSGSGSGTDFTLTISSLQPEDFATYYCQQSYSTFTFGQGTKVEIK
On to B3, for which the epitope binning score in test [8] was 1; in test [9] it was 0; in [10] it was 2; in test [11], 0; in [12] it was 0; in test [14] it was 0. Besides, the epitope binning score in [15] turned out to be 0; in test [16], 0; in [18], 0; in test [19], 2. Moreover, the IC50 in [13] is 3 nM. In addition, in test [17], the “S1 Monomer” value stood at 0.13 nM. Besides, the “S Trimer” value with S protein trimer was found to be 0.64 nM.

B4: 2-16 (antibody, V domains shown)
VH: EVQLLESGGGLVQPGGSLRLSCAASGFTFSSYAMSWVRQAPGKGLEWVSVISGSGGSTYYADSVKGRFTISRDNSKNTLYLQMNSLRAEDTAVYYCAREGYRDYLWYFDLWGQGTLVTVSS
VL: DIQMTQSPSSLSASVGDRVTITCTGTSSDVGSYDLVSWYQQKPGKAPKLLIYEGNKRPSGVPSRFSGSGSGTDFTLTISSLQPEDFATYYCCSYAGSSVVFGQGTKVEIK
notes: also called variant 2-16
For B4, the “ELISA(Avg)” value with SARS-CoV-2 S1 protein [3] and in the test with SARS-CoV-2 S1 protein [20] was 7.1 fold over background in each case. For the same molecule, the IC50 with SARS-CoV-2 S1 protein [21] is 433 nM.

B5: 2-5 (antibody, V domains shown)
VH: EVQLLESGGGLVQPGGSLRLSCAASGFTFSDFAMAWVRQAPGKGLEWVSAISGSGDITYYADSVKGRFTISRDNSKNTLYLQMNSLRAEDTAVYYCAREADGLHSPWHFDLWGQGTLVTVSS
VL: DIQMTQSPSSLSASVGDRVTITCRASQSIHTYLNWYQQKPGKAPKLLIYAASALASGVPSRFSGSGSGTDFTLTISSLQPEDFATYYCQQSYSAPPYTFGQGTKVEIK
notes: also called variant 2-5
Take B5: in the test with SARS-CoV-2 S1 protein [3], the “ELISA(Avg)” value is 30.8 fold over background. In addition, the dissociation constant Kd was found to be 1.9 nM with SARS-CoV-2 S1 protein [4] and 2.8 nM with SARS-CoV-2 S1 protein [6]. The same molecule showed an EC50 with SARS-CoV-2 S1 protein [5] of 0.133 nM. In the test with SARS-CoV-2 S1 protein [7], this molecule returned an IC50 of 4.2 nM.

B6: 2-8 (antibody, V domains shown)
VH: EVQLLESGGGLVQPGGSLRLSCAASGFTFSDFAMAWVRQAPGKGLEWVSAISGSGDITYYADSVKGRFTISRDNSKNTLYLQMNSLRAEDTAVYYCAREADGLHSPWHFDLWGQGTLVTVSS
VL: DIQMTQSPSSLSASVGDRVTITCRASQSIDTYLNWYQQKPGKAPKLLIYAASALASGVPSRFSGSGSGTDFTLTISSLQPEDFATYYCQQSYSAPPYTFGQGTKVEIK
notes: also called variant 2-8
Consider B6, for which the values for the Kd in the test with SARS-CoV-2 S1 protein [22] and with SARS-CoV-2 S1 protein [4] were 33.4 nM and 52.8 nM, respectively. For the same molecule, the “ELISA(Avg)” value with SARS-CoV-2 S1 protein [3] was found to be 32.4 fold over background. Moreover, in the test with SARS-CoV-2 S1 protein [5], the 50% effective concentration (EC50) came out at 0.08 nM. In the test with SARS-CoV-2 S1 protein [7], the IC50 was 12.2 nM.

B7: 2-5 (antibody, V domains shown)
VH: EVQLLESGGGLVQPGGSLRLSCAASGFTFSDFAMAWVRQAPGKGLEWVSAISGSGDITYYADSVKGRFTISRDNSKNTLYLQMNSLRAEDTAVYYCAREADGLHSPWHFDLWGQGTLVTVSS
VL: DIQMTQSPSSLSASVGDRVTITCRASQSIHTYLNWYQQKPGKAPKLLIYAASALASGVPSRFSGSGSGTDFTLTISSLQPEDFATYYCQQSYSAPPYTFGQGTKVEIK
Take B7: the epitope binning score in [8] came out at 1; in [9], 0; in test [10], 1; in test [11] it was 1; in test [12] it was 0; in [14], 1. Moreover, the epitope binning score was 0 in [15], 1 in [16], 0 in test [18] and 1 in [19]. The molecule also displayed an IC50 in test [13] of 4.4 nM. Besides, in [17], the “S1 Monomer” value turned out to be 0.17 nM. In the test with S protein trimer, the “S Trimer” value amounted to 0.59 nM.

As usually defined, the IC50 is the concentration at which inhibition is half-maximal. Low values mean inhibition by little substance, high ones a need for much substance. In general, EC50 refers to the concentration at which the effect is half-maximal. High values mean a need for much substance, low ones an effect from little substance. What is called Kd is a measure of binding affinity in units of concentration.

(Values after patent US20210355194A1 (TWIST BIOSCIENCE, published 2021).)
